# Laboratory results: the supplement of paper PMC9112550, “Optimization of the antimicrobial peptide Bac7 by deep mutational scanning” (BMC Biology, 2022)
# Test system: Escherichia coli TOP10
# Experiment: shrunken log2 fold change of peptide-encoding DNA abundance (4.5 h post-induction vs induction); higher = less antimicrobial activity (less host growth inhibition)
# Details: time post-induction: 4.5 h; library: site-saturation at positions 5, 18, 19, 20
# 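Further: peptides expressed intracellularly from a pBAD plasmid library in pooled LB shake-flask culture, induced with 0.3% L-arabinose, DNA abundance read by NGS, three biological replicates, DESeq2 with apeglm shrinkage.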
row,Sequence,shrunken log2 fold change
1,RRIRCRPPRLPRPRPRPNPLPRP,-0.131
2,RRIRTRPPRLPRPRPRPDNAPRP,-0.223
3,RRIRNRPPRLPRPRPRPDHYPRP,-0.202
4,RRIRHRPPRLPRPRPRPSVAPRP,-0.156
5,RRIRKRPPRLPRPRPRPMYTPRP,-0.0983
6,RRIRDRPPRLPRPRPRPWDVPRP,-0.00145
7,RRIRFRPPRLPRPRPRPFSPPRP,-1.12
8,RRIRYRPPRLPRPRPRPYIAPRP,-1.23
9,RRIRVRPPRLPRPRPRPKCMPRP,0.0847
10,RRIRPRPPRLPRPRPRPYACPRP,-0.921
11,RRIRLRPPRLPRPRPRPMLHPRP,-0.34
12,RRIRFRPPRLPRPRPRPGLQPRP,-0.18
13,RRIRRRPPRLPRPRPRPACVPRP,0.451
14,RRIRYRPPRLPRPRPRPIWTPRP,0.066
15,RRIRNRPPRLPRPRPRPKMRPRP,0.313
16,RRIRVRPPRLPRPRPRPKYEPRP,0.0383
17,RRIRSRPPRLPRPRPRPASGPRP,0.268
18,RRIRPRPPRLPRPRPRPCIVPRP,-0.199
19,RRIRYRPPRLPRPRPRPDNKPRP,-0.609
20,RRIRTRPPRLPRPRPRPLENPRP,0.0394
21,RRIRYRPPRLPRPRPRPWMWPRP,0.0261
22,RRIRGRPPRLPRPRPRPILTPRP,0.351
23,RRIRTRPPRLPRPRPRPNLTPRP,-0.00355
24,RRIRSRPPRLPRPRPRPSFPPRP,-0.557
25,RRIRFRPPRLPRPRPRPHTVPRP,0.0365

row,Sequence,shrunken log2 fold change
1,RRIRMRPPRLPRPRPRPSMYPRP,0.081
2,RRIRWRPPRLPRPRPRPYTEPRP,-0.118
3,RRIRMRPPRLPRPRPRPLYDPRP,-0.0878
4,RRIRERPPRLPRPRPRPMGCPRP,0.111
5,RRIRNRPPRLPRPRPRPIEIPRP,0.0194
6,RRIRGRPPRLPRPRPRPNVFPRP,0.27
7,RRIRNRPPRLPRPRPRPWLFPRP,0.0966
8,RRIRWRPPRLPRPRPRPYFHPRP,-0.625
9,RRIRFRPPRLPRPRPRPQKFPRP,-0.259
10,RRIRWRPPRLPRPRPRPLCPPRP,0.0748
11,RRIRSRPPRLPRPRPRPHIKPRP,-0.255
12,RRIRMRPPRLPRPRPRPRVKPRP,0.494
13,RRIRFRPPRLPRPRPRPAMKPRP,-0.345
14,RRIRCRPPRLPRPRPRPVFYPRP,-0.379
15,RRIRGRPPRLPRPRPRPFQVPRP,0.0301
16,RRIRERPPRLPRPRPRPACAPRP,0.455
17,RRIRRRPPRLPRPRPRPFKWPRP,-0.157
18,RRIRCRPPRLPRPRPRPTTIPRP,-0.492
19,RRIRMRPPRLPRPRPRPGRKPRP,1.32
20,RRIRPRPPRLPRPRPRPPDTPRP,0.148
21,RRIRRRPPRLPRPRPRPNKFPRP,-0.246
22,RRIRSRPPRLPRPRPRPRITPRP,-0.421
23,RRIRERPPRLPRPRPRPQGYPRP,0.0039
24,RRIRYRPPRLPRPRPRPQMYPRP,-0.286
25,RRIRFRPPRLPRPRPRPGTGPRP,-0.124

row,Sequence,shrunken log2 fold change
1,RRIRERPPRLPRPRPRPYHAPRP,0.00489
2,RRIRLRPPRLPRPRPRPDDYPRP,-0.247
3,RRIRYRPPRLPRPRPRPRWQPRP,0.033
4,RRIRNRPPRLPRPRPRPNRWPRP,0.105
5,RRIRKRPPRLPRPRPRPKEHPRP,0.405
6,RRIRYRPPRLPRPRPRPPLAPRP,0.13
7,RRIRTRPPRLPRPRPRPGYSPRP,1.78
8,RRIRARPPRLPRPRPRPTMWPRP,0.516
9,RRIRGRPPRLPRPRPRPEKFPRP,0.716
10,RRIRRRPPRLPRPRPRPLQVPRP,0.000182
11,RRIRTRPPRLPRPRPRPDHTPRP,-0.145
12,RRIRGRPPRLPRPRPRPINKPRP,0.287
13,RRIRGRPPRLPRPRPRPTKFPRP,0.458
14,RRIRNRPPRLPRPRPRPHWQPRP,-0.115
15,RRIRERPPRLPRPRPRPRHGPRP,-0.467
16,RRIRFRPPRLPRPRPRPIEAPRP,-0.181
17,RRIRRRPPRLPRPRPRPHLHPRP,0.216
18,RRIRFRPPRLPRPRPRPSDGPRP,-0.391
19,RRIRIRPPRLPRPRPRPEHKPRP,-0.199
20,RRIRIRPPRLPRPRPRPQCIPRP,-0.37
21,RRIRMRPPRLPRPRPRPIYAPRP,1.86
22,RRIRSRPPRLPRPRPRPFLHPRP,-0.174
23,RRIRLRPPRLPRPRPRPLWIPRP,-0.399
24,RRIRHRPPRLPRPRPRPVSQPRP,0.114
25,RRIRMRPPRLPRPRPRPIDIPRP,0.476
